According to patent US7960140B2, “Avidin mutants” (Orion Diagnostica Oy, priority 2003, dated 2011):

How the values were obtained:
[1] = Dissociation assay with fluorescent biotin conjugate (ArcDia BF560); assay type: binding
Description: The biotin-binding properties of produced mutagenised dcAvds were analysed by method based on the quenching of biotin-coupled fluorescent probe ArcDia BF560 (ArcDia Ltd., Turku, Finland) due to binding to avidin (FIG. 4). PerkinElmer LS55 luminometer was used for measurements. […] The spectra of 50 nM biotin-Bf560 solution in 50 mM Na-phosphate containing 650 mM NaCl was measured (red). Chicken avidin (Belovo S. A., Bastogne, Belgium) was added to final subunit concentration of 83 nM and green spectra was obtained.
Briefly, 50 nM free biotin-Bf560 solution in 50 mM Na-phosphate containing 650 mM NaCl was measured using excitation at 560 nm (2.5 nm slit) and emission was collected at 578 nm (5 nm slit). Continuous stirring (setting low) was used throughout the analysis. After 100 sec measurement, the protein under study was added to final biotin-binding subunit concentration 50 nM and the measurement was continued for 500 sec. […]
A one-phase dissociation model was used to analyse the data, as described elsewhere (Hytönen et al., (2004) Biochem J, in press). The dissociation rate constant (kdiss) was determined by fitting the equation −kdisst=ln(B/Bo) to the data. Bo is the measured maximum binding (100%) determined as the difference between the fluorescence of the free dye and the fluorescence of the protein-dye complex, and B is the amount of complex measured as a function of time. The first 500 seconds were omitted from the data to abolish the effect of the fast initial phase characteristic of avidin-BF560-biotin interaction (FIG. 9). The fraction of fluorescent biotin released after one-hour was determined, as well as the times of half-maximal (t½) and quarter-maximal (t¼) release. For dual chain avidins with modified binding sites, it was hypothesized that 50% of the binding sites would behave like those of wt avidin (cpAvd5S4 binding site of dcAvd was not modified). The dissociation data measured for wt avidin divided by two was subtracted from the data measured for the modified dual chain avidins and the dissociation curve was fitted to the difference as above.

[2] = Free biotin-binding sites by quenching of intrinsic fluorescence on biotin titration
Description: The number of free binding sites was determined based on the quenching of the intrinsic fluorescence of avidin due to binding of biotin (Laitinen et al., (2003) J. Biol. Chem. 278, 4010-4014). The protein sample under study diluted to 2 ml volume in 50 mM NaPO4 pH 7.0+650 mM NaCl was titrated with 1 μl additions of 70 μM biotin solution in the same buffer. The protein concentration in this assay was 500±15 nM, and the concentration was determined by comparing the emission intensity averaged over 340-350 nm (excitation at 280 nm) to avidin standard sample. The protein sample was continuously mixed by magnetic stirrer.
Intensity from each biotin concentration was averaged over eight second measurement. The end-point of the quenching was determined by fitting a line to obtained data and determining the total quenching by averaging the last three measured intensities (FIG. 12, Table 6).

[3] = Microplate temperature stability assay; assay type: physicochemical
Description: FIG. 13. Temperature sensitivity determined by microplate assay. The avidin, dcAvd and scAvd sample is treated with the indicated temperature for certain time and the ability to bind biotinylated alkaline phosphatase was determined by coating the microplate with the sample.
The stability of the protein was studied by microplate assay as described in the article by Nordlund et al., (2003) J Biol Chem 278, 2479-83. In this assay, 50 mM Na—PO4 buffer containing 100 mM NaCl was used and the protein was heated to 80° C. or 90° C. for certain time. After that, the capacity to bind fluorescent biotin was measured as described in the article by Nordlund et al., (2003) J Biol Chem 278, 2479-83.

[4] = Radiobiotin dissociation assay; assay type: binding; details: various temperatures
Description: FIG. 11. Radiobiotin dissociation assay for scAvd. Temperature-dependence of biotin dissociation rates measured by the [3H]biotin dissociation assay. Dissociation rate constant of radiobiotin was determined at various temperatures. The dissociation rate constants determined previously for avidin and streptavidin are also shown. The determined kdiss-values are connected by lines.
Radiobiotin assay was performed for scAvd in various temperatures.

B1: scAvd: single-chain avidin, two dcAvd fused tail-to-head via 12 amino-acid linker GGSGSGSGSGSG (SEQ ID NO:24) (protein, listed as Gallus gallus)
chain: MVHATSPLLLLLLLSLALVAPGLSARKRTQPTFGFTVNWKFSESTTVFTGQCFIDRNGKEVLKTMWLLRSSVNDIGDDWKATRVGINIFTRLRTQKEGGSGGSARKCSLTGKWTNDLGSNMTIGAVNSRGEFTGTYITAVTATSNEIKESPLHGTQNTINKSGGSTTVFTGQCFIDRNGKEVLKTMWLLRSSVNDIGDDWKATRVGINIFTRLRTQKEGGSGGSARKCSLTGKWTNDLGSNMTIGAVNSRGEFTGTYITAVTATSNEIKESPLHGTQNTINKRTQPTFGFTVNWKFSEGGSGSGSGSGSGRTQPTFGFTVNWKFSESTTVFTGQCFIDRNGKEVLKTMWLLRSSVNDIGDDWKATRVGINIFTRLRTQKEGGSGGSARKCSLTGKWTNDLGSNMTIGAVNSRGEFTGTYITAVTATSNEIKESPLHGTQNTINKSGGSTTVFTGQCFIDRNGKEVLKTMWLLRSSVNDIGDDWKATRVGINIFTRLRTQKEGGSGGSARKCSLTGKWTNDLGSNMTIGAVNSRGEFTGTYITAVTATSNEIKESPLHGTQNTINKRTQPTFGFTVNWKFSE
- Dissociation of fluorescent biotin Release 1 h ([1]; 25° C.): 8.8%
- Dissociation of fluorescent biotin kdiss ([1]; 25° C.): 1.3e-05 s⁻¹
- Dissociation of fluorescent biotin Release 1 h ([1]; 50° C.): 62.3%
- Dissociation of fluorescent biotin kdiss ([1]; 50° C.): 0.00025 s⁻¹
- quenching measured for whole emission spectrum (290-500 nm) due to biotin binding ([2]; 290-500 nm): 39.7%
- Fluorescence quenching (350 nm) ([2]; intrinsic fluorescence, emission 350 nm, due to binding of biotin): 44.4%
- Number of free biotin-binding sites per quaternary unit ([2]; protein 500±15 nM, titrated with biotin): 3.2
- activity after 32 min treatment ([3]; 80° C., 32 min): 26%
- heat inactivation ([3]; 90° C.): fast denaturation
- heat inactivation ([3]; 100° C.): fast inactivation
- dissociation of [3H]biotin [4]: extremely slow dissociation of [3H]biotin
